Test results as given in patent US10745461B2, “Pulsed introduction of low-dose RANKL as a therapy for diet-induced atherosclerosis” (Saint Louis University, priority 2015, dated 2020).
“Also recorded” adds a separate entry of the source.

Legend:
[1] = system: FoxP3 induction in OT-I CD8 T-cells by osteoclasts; experiment: TcREG (FoxP3) induction in OT-I CD8 T-cells co-cultured with bone marrow-derived osteoclasts; format: cell-based, mice; conditions: in culture, IL-17 10 ng/ml, increasing TNFα, DAPT 10 μM, Fc proteins added to T-cells prior to co-culture
Experimental: It was also determined that IL-17 and TNFα suppresses TcREG induction by osteoclasts. […] Another possibility is that loss of estrogen leads to increased production of the pro-inflammatory cytokines by T-cells that increase osteoclast activity. Without being limited to any method of operation, it is actually expected that in the presence of pro-inflammatory cytokines osteoclasts fail to induce TcREG. As estrogen depletion lead to greater number of osteoclasts because of a decreased Fas ligand expression, the loss of TcREG induction and increased osteoclast numbers would tip the balance towards increased osteoclast resorption and net bone loss. To test fir this possibility, OC-iTcREG induction was measured in the presence of IL-17 and TNFα. […] To understand the underlying mechanism of how TNFα affects osteoclasts' ability to induce TcREG, the signals provided by osteoclasts to induce FoxP3 in the CD8 T-cells were investigated along with if these signals were affected by […].
(§1) The most common and well-studied costimulatory signals on antigen-presenting cells are CD80 (B7.1) and CD86 (B7.2). As CD80/CD86 double knockout mice are commercially available, osteoclasts were generated from bone marrow precursors of these mice. The CD80/CD86 null osteoclasts (as well as wild-type controls) were then used to prime OT-I T-cells in the presence and absence of antigen. […] OT-I CD8 T-cells activated by CD80/CD86 null osteoclasts produced IL-6, IL-2 and IFN-γ to levels indistinguishable from wild-type mice (FIG. 4B). Having ruled out CD80/CD86 as the costimulatory molecules, an osteoclast microarray dataset was queried for other costimulatory molecules expressed by osteoclasts. Osteoclasts that express CD200 and c-Mer were found. The role of CD200 was chosen for testing based on the phenotype of CD200^−/− mice and the reported role for CD200 in regulating TcREG.
The most, well characterized regulator of FoxP3 in T-cells is TGFβ. It has been previously shown that neutralization or addition of TGFβ has no effect on the induction of TcREG. Therefore identification of other pathways that can regulate the FoxP3 promoter in T-cells was sought. A number of previous studies have identified that the Notch signaling contributes to FoxP3 induction. To test if Notch signaling is important for TcREG induction by osteoclasts, the γ-Secretase inhibitor DAPT was initially used. Ligation of the Notch receptor by its ligand leads to cleavage of Notch by γ-secretase. […] Next, we identified the Notch ligands expressed in osteoclasts using reverse-transcription followed by PCR. […] Of the four, the osteoclast-precursors (bone marrow cells treated with M-CSF but not RANKL) express all of the ligands except DLL4 (FIG. 5C). To assess the role of DLL4 in TcREG (soluble) DLL4-Fc was added to OT-I CD8 T-cells prior to co-culturing with osteoclasts. […] To assess the role of DLL4 in vivo the induction experiments as described in FIG. 1 were performed: GFP negative (polyclonal) CD8 T-cells were purified by cell sorting and transferred into OT-II Rag^−/− mice. Two hours prior to RANKL treatment, DLL4-Fc or a control IgG1-Fc, were injected intravenously into the recipient mice, As described for FIG. 1, RANKL (0.125 mg/kg) was then administered on two consecutive days.
DLL-4 expression is repressed in the presence of […] and IL-17 but can be de-repressed by RANKL. […]

[2] = system: DLL4; experiment: DLL4 expression in mature osteoclasts by qRT-PCR; format: cell-based, mouse; conditions: overnight in 20 ng/ml TNFα or 10 ng/ml IL-17
Text: DLL-4 expression is repressed in the presence of […] and IL-17 but can be de-repressed by RANKL. Having identified that DLL4 was required for osteoclasts to induce Foxp3 expression in CD8+ T cells we next tested if DLL-4 expression was affected by pro-inflammatory cytokines. […] As RANKL induced DLL4 in osteoclast precursors, it was hypothesized that adding additional RANKL may overcome the repression of DLL4 by TNFα. To assess the reversibility of DLL4 expression, mature osteoclasts were cultured overnight in 50 ng/ml RANKL and 20 ng/ml […], and then additional RANKL was added to the culture media (while maintaining 20 ng/ml TNFα) as shown in FIG. 5E. Indeed, addition of RANKL overcomes (within 24 hours) the repression of DLL4 by TNFα as assessed by qRT-PCR. […] The experiment was performed as above, but in this case FoxP3 induction in OT-I CD8 T-cells in the presence of OVA and either 10 ng/ml or 20 ng/ml TNFα was measured.
(§2) Osteoclasts seeded on day 4 at 1.5×10^6 cells/ml were used in all experiments. RNA was isolated at time point described in Figure legends. 10 to 50 ng of RNA was used for first-strand cDNA synthesis in 50 μL reaction per kit instructions (Superscript III cDNA synthesis system; Invitrogen). In all cases 10% of the cDNA product was used in a 50 μL PCR reaction that contained 10 μM each forward and reverse primers. For quantitative PCR (qPCR) SYBR green system (Invitrogen) was used. Otherwise, cDNA was amplified (25 cycles) and the products resolved on 1.2% agarose gel and visualized by ethidium bromide staining.

[3] = system: CD200; experiment: CD200 expression in mature osteoclasts by qRT-PCR; format: cell-based, mouse; conditions: TNFα 20 ng/ml or IL-17A 10 ng/ml
Text: as §1, §2

**Q.** Which “effect of added agent on TcREG/FoxP3 induction by osteoclasts” value [1] does the source give for `C[C@H](NC(=O)Cc1cc(F)cc(F)c1)C(=O)N[C@H](C(=O)OC(C)(C)C)c1ccccc1` [DAPT, reference compound] here?
**A.** completely inhibited TcREG induction; also recorded: completely abrogated FoxP3 induction

**Q.** With TNFα [reference compound] as the molecule, how does the “DLL4 transcripts in mature osteoclasts after cytokine” value [2] read?
**A.** DLL4 expression was repressed; also recorded: significantly reduced

**Q.** And the “effect of added agent on TcREG/FoxP3 induction by osteoclasts” value [1]?
**A.** reduced TcREG induction in a dose dependent manner; also recorded: greatly impaired

**Q.** And the “CD200 mRNA expression in mature osteoclasts” value [3]?
**A.** had no effect on CD200 expression; also recorded: not altered

B1: IL-17A: recombinant murine IL-17A, pro-inflammatory cytokine (protein, UniProt Q62386 26-158, looked up)
Interleukin-17A: AAIIPQSSACPNTEAKDFLQNVKVNLKVFNSLGAKVSSRRPSDYLNRSTSPWTLHRNEDPDRYPSVIWEAQCRHQRCVNAEGKLDHHMNSVLIQQEILVLKREPESCPFTFRVEKMLVGVGCTCVASIVRQAA
**Q.** Which results are given for B1?
**A.** DLL4 transcripts in mature osteoclasts after cytokine [2]: DLL4 expression was repressed; DLL4 transcripts in mature osteoclasts after cytokine ([2]; listed as IL-17): significantly reduced; effect of added agent on TcREG/FoxP3 induction by osteoclasts [1]: significantly reduced; effect of added agent on TcREG/FoxP3 induction by osteoclasts ([1]; listed as IL-17): greatly impaired; CD200 mRNA expression in mature osteoclasts [3]: had no effect on CD200 expression; CD200 mRNA expression in mature osteoclasts ([3]; listed as IL-17): not altered
